Experiment [1] addresses T1, human vWf (human, UniProt P04275 764-2813).
T1 construct: Plasma-type multimeric protein; It was coated on plates (25-500 ng/well) in the adhesion assay and FITC-labeled (F/P ratio 1-4) in the flow cytometry assay; also called FITC˜vWf
In words: flow cytometry, FITC-vWf on mouse platelets in PRP stimulated with ADP and epinephrine (no botrocetin).

Experiment [2] concerns the target T1, human vWf. Description: platelet adhesion to vWf-coated 96-well plates (25-500 ng/well) with botrocetin 4 µM; bound platelets read by acid phosphatase activity. The protocol:
96-well plates were coated with various concentrations (25-500 ng/well) of human vWf overnight at 4° C. Pooled WP from mice were resuspended in Mg²⁺-free CFTH buffer (1.2×10⁸/mL) containing botrocetin (4 μM), and incubated immobilized human vWf for 1 hour at room temp. Following two PBS washes, bound platelets were lysed and intracellular acid phosphatase activity was quantitated calorimetrically using the substrate pNPP (Sigma).

B1: mouse αIIbβ3 on platelets (receptor)
chain 1: LNLDSEKFSVYAGPNGSHFGFSVDFHKDKHGSVSIVVGAPRALNASQEETGAVFLCPWKANGGKCNPLLFDLRDETRNLGFQIFQTFKTGQGLGASVVSWNDVIVACAPWQHWNVLEKRDEAEKTPVGGCFLAQLQSGGRAEYSPCRANTMSSVYAESFRGDKRYCEAGFSLAVTQAGELVLGAPGGYFFLGLLARVPIENIISSYRPGTLLWHVSNQRFTYDNSNPVFFDGYRGYSVAVGEFDGDPSTTEYVSGAPTWSWTLGAVEILDSYYQPLHRLHGEQMASYFGHSVAVTDVNGDGRHDLLVGAPLYMESRADRKLAEVGRVYLFLQPKGPQALSTPTLLLTGTQLYGRFGSAIAPLGDLNRDGYNDIAVAAPYGGPSGQGQVLIFLGQSEGLSPRPSQVLDSPFPTGSGFGFSLRGAVDIDDNGYPDLIVGAYGASKVAVYRAQPVVMATVQLMVQDSLNPTLKNCVLDQTKTPVSCFNIQMCVGATGHNIPQKLHLKAELQLDLQKPRQGRRVLLLASQQASLTLSLDLGGRDKPICHTTGAFLRDEADFRDKLSPIVLSLNVSLPPEETGGAPAVVLHGETHVQEQTRIILDCGEDDLCVPQLRLTATAGDSPLLIGADNVLELKIEAANDGEGAYEAELAVHLPPGAHYMRALSNIEGFERLVCTQKKENESRVALCELGNPMKKDTRIGITMLVSVENLEEAGESVSFQLQVRSKNSQNPNSKVVMLPVAIQAEATVELRGNSFPASLVVAAEEGDREQEDLDRWVSRLEHTYELHNIGPGTVNGLRLLIHIPGQSQPSDLLYILDVQPQGGLLCSTQPSPKVDWKLSTPSPSSIRPVHHQRERRQAFLQGPKPGQQDPVLVSCDGSASCTVVECELREMVRGQRAMVTVQVMLGLSSLRQRPQEQFVLQSHAWFNVSSLPYSVPVVSLPSGQARVQTQLLRALEERAIPVWWVLVGVLGGLLLLTLLVLAMWKAGFFKRNRPPLEEDEEEE
chain 2: ESNICTTRGVNSCQQCLAVSPVCAWCSDETLSQGSPRCNLKENLLKDNCAPESIEFPVSEAQILEARPLSSKGSGSSAQITQVSPQRIALRLRPDDSKIFSLQVRQVEDYPVDIYYLMDLSFSMKDDLSSIQTLGTKLASQMRKLTSNLRIGFGAFVDKPVSPYMYISPPQAIKNPCYNMKNACLPMFGYKHVLTLTDQVSRFNEEVKKQSVSRNRDAPEGGFDAIMQATVCDEKIGWRNDASHLLVFTTDAKTHIALDGRLAGIVLPNDGHCHIGTDNHYSASTTMDYPSLGLMTEKLSQKNINLIFAVTENVVSLYQNYSELIPGTTVGVLSDDSSNVLQLIVDAYGKIRSKVELEVRDLPEELSLSFNATCLNNEVIPGLKSCVGLKIGDTVSFSIEAKVRGCPQEKEQSFTIKPVGFKDSLTVQVTFDCDCACQAFAQPSSPRCNNGNGTFECGVCRCDQGWLGSMCECSEEDYRPSQQEECSPKEGQPICSQRGECLCGQCVCHSSDFGKITGKYCECDDFSCVRYKGEMCSGHGQCNCGDCVCDSDWTGYYCNCTTRTDTCMSTNGLLCSGRGNCECGSCVCVQPGSYGDTCEKCPTCPDACSFKKECVECKKFNRGTLHEENTCSRYCRDDIEQVKELTDTGKNAVNCTYKNEDDCVVRFQYYEDTSGRAVLYVVEEPECPKGPDILVVLLSVMGAILLIGLATLLIWKLLITIHDRKEFAKFEEERARAKWDTANNPLYKEATSTFTNITYRGT
notes: whole, on cells; Native receptor on washed mouse platelets of GP V wt, +/- and -/- genotype; also called mouse fibrinogen receptor; GPIIb-IIIa
With B1, the binding result in experiment [1] is reported as “no binding”.

B2: mouse GP Ib on platelets (receptor)
chain 1: QHTCSISKVTSLLEVNCENKKLTALPADLPADTGILHLGENQLGTFSTASLVHFTHLTYLYLDRCELTSLQTNGKLIKLENLDLSHNNLKSLPSLGWALPALTTLDVSFNKLGSLSPGVLDGLSQLQELYLQNNDLKSLPPGLLLPTTKLKKLNLANNKLRELPSGLLDGLEDLDTLYLQRNWLRTIPKGFFGTLLLPFVFLHANSWYCDCEILYFRHWLQENANNVYLWKQGVDVKDTTPNVASVRCANLDNAPVYSYPGKGCPTSSGDTDYDDYDDIPDVPATRTEVKFSTNTKVHTTHWSLLAAAPSTSQDSQMISLPPTHKPTKKQSTFIHTQSPGFTTLPETMESNPTFYSLKLNTVLIPSPTTLEPTSTQATPEPNIQPMLTTSTLTTPEHSTTPVPTTTILTTPEHSTIPVPTTAILTTPKPSTIPVPTTATLTTLEPSTTPVPTTATLTTPEPSTTLVPTTATLTTPEHSTTPVPTTATLTTPEHSTTPVPTTATLTTPEPSTTLTNLVSTISPVLTTTLTTPESTPIETILEQFFTTELTLLPTLESTTTIIPEQNSFLNLPEVALVSSDTSESSPFLNSDFCCFLPLGFYVLGLLWLLFASVVLILLLTWTWHVTPHSLDMEQSAALATSTHTTSLEVQRARQVTMPRAWLLFLQGSLPTFRSSLFLWVRPNGRVGPLVAGRRPSALSQGRGQDLLGTVGIRYSGHSL
chain 2: PAPCSCAGTLVDCGRRGLTWASLPAAFPPDTTELVLTGNNLTALPPGLLDALPALRAAHLGANPWRCDCRLLPLRAWLAGRPERAPYRDLRCVAPPALRGRLLPYVAEDELRAACAPGLLCWGALVAQLALLVLGLLHALLLALLLGRLRRLRARARARSIQEFSLTAPLVAESARGGAS
notes: whole, on cells; Native receptor on mouse platelets of GP V wt, +/- and -/- genotype, present there in complex with GP IX (and with GP V in wt); also called GP Ib-IX (complex on platelets)
For the molecule B2, in experiment [2], the binding result was “binds”.
